Laboratory results as given in patent US20240408238.

B1: Nme2Cas9 (recombinant, purified; Neisseria meningitidis strain De11444) (protein)
chain: PKKKRKVNAMAAFKPNPINYILGLDIGIASVGWAMVEIDEEENPIRLIDLGVRVFERAEVPKTGDSLAMARRLARSVRRLTRRRAHRLLRARRLLKREGVLQAADFDENGLIKSLPNTPWQLRAAALDRKLTPLEWSAVLLHLIKHRGYLSQRKNEGETADKELGALLKGVANNAHALQTGDFRTPAELALNKFEKESGHIRNQRGDYSHTFSRKDLQAELILLFEKQKEFGNPHVSGGLKEGIETLLMTQRPALSGDAVQKMLGHCTFEPAEPKAAKNTYTAERFIWLTKLNNLRILEQGSERPLTDTERATLMDEPYRKSKLTYAQARKLLGLEDTAFFKGLRYGKDNAEASTLMEMKAYHAISRALEKEGLKDKKSPLNLSSELQDEIGTAFSLFKTDEDITGRLKDRVQPEILEALLKHISFDKFVQISLKALRRIVPLMEQGKRYDEACAEIYGDHYGKKNTEEKIYLPPIPADEIRNPVVLRALSQARKVINGVVRRYGSPARIHIETAREVGKSFKDRKEIEKRQEENRKDREKAAAKFREYFPNFVGEPKSKDILKLRLYEQQHGKCLYSGKEINLVRLNEKGYVEIDHALPFSRTWDDSFNNKVLVLGSENQNKGNQTPYEYFNGKDNSREWQEFKARVETSRFPRSKKQRILLQKFDEDGFKECNLNDTRYVNRFLCQFVADHILLTGKGKRRVFASNGQITNLLRGFWGLRKVRAENDRHHALDAVVVACSTVAMQQKITRFVRYKEMNAFDGKTIDKETGKVLHQKTHFPQPWEFFAQEVMIRVFGKPDGKPEFEEADTPEKLRTLLAEKLSSRPEAVHEYVTPLFVSRAPNRKMSGAHKDTLRSAKRFVKHNEKISVKRVWLTEIKLADLENMVNYKNGREIELYEALKARLEAYGGNAKQAFDPKDNPFYKKGGQLVKAVRVEKTQESGVLLNKKNAYTIADNGDMVRVDVFCKVDKKGKNQYFIVPIYAWQVAENILPDIDCKGYRIDDSYTFCFSLHKYDLIAFQKDEKSKVEFAYYINCDSSNGRFYLAWHDKGSKEQQFRISTQNLVLIQKYQVNELGKEIRPCRLKKRPPVRGGGGSGGGGSGGGGSPAAKKKKLDGGGSKRPAATKKAGQAKKKK
B2: Nme1Cas9 (Cas9 of Neisseria meningitidis strain 8013) (protein)
chain: MAAFKPNSINYILGLDIGIASVGWAMVEIDEEENPIRLIDLGVRVFERAEVPKTGDSLAMARRLARSVRRLTRRRAHRLLRTRRLLKREGVLQAANFDENGLIKSLPNTPWQLRAAALDRKLTPLEWSAVLLHLIKHRGYLSQRKNEGETADKELGALLKGVAGNAHALQTGDFRTPAELALNKFEKESGHIRNQRSDYSHTFSRKDLQAELILLFEKQKEFGNPHVSGGLKEGIETLLMTQRPALSGDAVQKMLGHCTFEPAEPKAAKNTYTAERFIWLTKLNNLRILEQGSERPLTDTERATLMDEPYRKSKLTYAQARKLLGLEDTAFFKGLRYGKDNAEASTLMEMKAYHAISRALEKEGLKDKKSPLNLSPELQDEIGTAFSLFKTDEDITGRLKDRIQPEILEALLKHISFDKFVQISLKALRRIVPLMEQGKRYDEACAEIYGDHYGKKNTEEKIYLPPIPADEIRNPVVLRALSQARKVINGVVRRYGSPARIHIETAREVGKSFKDRKEIEKRQEENRKDREKAAAKFREYFPNFVGEPKSKDILKLRLYEQQHGKCLYSGKEINLGRLNEKGYVEIDHALPFSRTWDDSFNNKVLVLGSENQNKGNQTPYEYFNGKDNSREWQEFKARVETSRFPRSKKQRILLQKFDEDGFKERNLNDTRYVNRFLCQFVADRMRLTGKGKKRVFASNGQITNLLRGFWGLRKVRAENDRHHALDAVVVACSTVAMQQKITRFVRYKEMNAFDGKTIDKETGEVLHQKTHFPQPWEFFAQEVMIRVFGKPDGKPEFEEADTLEKLRTLLAEKLSSRPEAVHEYVTPLFVSRAPNRKMSGQGHMETVKSAKRLDEGVSVLRVPLTQLKLKDLEKMVNREREPKLYEALKARLEAHKDDPAKAFAEPFYKYDKAGNRTQQVKAVRVEQVQKTGVWVRNHNGIADNATMVRVDVFEKGDKYYLVPIYSWQVAKGILPDRAVVQGKDEEDWQLIDDSFNFKFSLHPNDLVEVITKKARMFGYFASCHRGTGNINIRIHDLDHKIGKNGILEGIGVKTALSFQKYQIDELGKEIRPCRLKKRPPVR

Protein	in vitro DNA cleavage by Cas9:sgRNA in the presence of Acr (10:1 Acr:Cas9 molar ratio) (AcrIIC1Nme)	in vitro DNA cleavage by Cas9:sgRNA in the presence of Acr (10:1 Acr:Cas9 molar ratio) (AcrIIC2Nme)	in vitro DNA cleavage by Cas9:sgRNA in the presence of Acr (10:1 Acr:Cas9 molar ratio) (AcrIIC3Nme)	in vitro DNA cleavage by Cas9:sgRNA in the presence of Acr (10:1 Acr:Cas9 molar ratio) (AcrIIC4Hpa)	in vitro DNA cleavage by Cas9:sgRNA in the presence of Acr (10:1 Acr:Cas9 molar ratio) (AcrIIC5Smu)	in vitro DNA cleavage by Cas9:sgRNA in the presence of Acr (10:1 Acr:Cas9 molar ratio) (AcrE2)
B1	completely inhibited Nme2Cas9	completely inhibited Nme2Cas9	completely inhibited Nme2Cas9	completely inhibited Nme2Cas9	did not inhibit Nme2Cas9 in vitro even at a 10-fold molar excess	–
B2	all 5 families inhibited Nme1Cas9	all 5 families inhibited Nme1Cas9	all 5 families inhibited Nme1Cas9	all 5 families inhibited Nme1Cas9	all 5 families inhibited Nme1Cas9	AcrE2 failed to do so
